B1: Zinc finger homeobox protein 4, residues 2086 to 2141; numbered along this chain, Q86UP3 (parent)
chain: RPRTRITDDQLKILRAYFDINNSPSEEQIQEMAEKSGLSQKVIKHWFRNTLFKERQ

± gives the uncertainty stated by the source.

Variants of B1 are the subject of this data set. Description: abundance fitness (aPCA) (normalised: wild type 0, dead -1); higher = more abundant; growth selection in yeast, the domain comes from the species named. The following applies: Homo sapiens.
For RPRTRITDDQLKILRAYFDANNSPSEEQIQEMAEKSGLSQKVIKHWFRNTLFKERQ [I20A], the abundance fitness is 0.105 ± 0.079.

On to RPRTRITDDQLKILRAYFDRNNSPSEEQIQEMAEKSGLSQKVIKHWFRNTLFKERQ [I20R], for which the abundance fitness was -0.007 ± 0.067. Turning to RPRTRITDDQLKILRAYFDTNNSPSEEQIQEMAEKSGLSQKVIKHWFRNTLFKERQ [I20T], the abundance fitness is 0.077 ± 0.12. RPRTRITDDQLKILRAYFDPNNSPSEEQIQEMAEKSGLSQKVIKHWFRNTLFKERQ [I20P]: the abundance fitness worked out at 0.022 ± 0.11. For the variant RPRTRITDDQLKILRAYFDGNNSPSEEQIQEMAEKSGLSQKVIKHWFRNTLFKERQ [I20G], the abundance fitness is -0.03 ± 0.066. Turning to RPRTRITDDQLKILRAYFDLNNSPSEEQIQEMAEKSGLSQKVIKHWFRNTLFKERQ [I20L], the abundance fitness was -0.051 ± 0.081. RPRTRITDDQLKILRAYFDKNNSPSEEQIQEMAEKSGLSQKVIKHWFRNTLFKERQ [I20K]: the abundance fitness was determined as 0.153 ± 0.11. Turning to RPRTRITDDQLKILRAYFDQNNSPSEEQIQEMAEKSGLSQKVIKHWFRNTLFKERQ [I20Q], the abundance fitness turned out to be 0.054 ± 0.1. Take RPRTRITDDQLKILRAYFDDNNSPSEEQIQEMAEKSGLSQKVIKHWFRNTLFKERQ [I20D]: the abundance fitness is -0.276 ± 0.11. For RPRTRITDDQLKILRAYFDWNNSPSEEQIQEMAEKSGLSQKVIKHWFRNTLFKERQ [I20W], the abundance fitness is -0.273 ± 0.09.

Take RPRTRITDDQLKILRAYFDVNNSPSEEQIQEMAEKSGLSQKVIKHWFRNTLFKERQ [I20V]: the abundance fitness stood at 0.008 ± 0.069. The result for RPRTRITDDQLKILRAYFDCNNSPSEEQIQEMAEKSGLSQKVIKHWFRNTLFKERQ [I20C] reads -0.095 ± 0.084; that for RPRTRITDDQLKILRAYFDENNSPSEEQIQEMAEKSGLSQKVIKHWFRNTLFKERQ [I20E], 0.015 ± 0.12.

Regarding RPRTRITDDQLKILRAYFDMNNSPSEEQIQEMAEKSGLSQKVIKHWFRNTLFKERQ [I20M], the abundance fitness was -0.007 ± 0.13. For RPRTRITDDQLKILRAYFDFNNSPSEEQIQEMAEKSGLSQKVIKHWFRNTLFKERQ [I20F], the abundance fitness was -0.006 ± 0.09.

Regarding RPRTRITDDQLKILRAYFDNNNSPSEEQIQEMAEKSGLSQKVIKHWFRNTLFKERQ [I20N], the abundance fitness was 0.03 ± 0.11.

Take RPRTRITDDQLKILRAYFDHNNSPSEEQIQEMAEKSGLSQKVIKHWFRNTLFKERQ [I20H]: the abundance fitness was -0.134 ± 0.12. For the variant RPRTRITDDQLKILRAYFFINNSPSEEQIQEMAEKSGLSQKVIKHWFRNTLFKERQ [D19F], the abundance fitness is -0.196 ± 0.14. For the variant RPRTRITDDQLKILRAYFQINNSPSEEQIQEMAEKSGLSQKVIKHWFRNTLFKERQ [D19Q], the abundance fitness was 0.029 ± 0.11. Next, RPRTRITDDQLKILRAYFKINNSPSEEQIQEMAEKSGLSQKVIKHWFRNTLFKERQ [D19K]: 0.082 ± 0.13; RPRTRITDDQLKILRAYFTINNSPSEEQIQEMAEKSGLSQKVIKHWFRNTLFKERQ [D19T]: -0.104 ± 0.11.

On to RPRTRITDDQLKILRAYFNINNSPSEEQIQEMAEKSGLSQKVIKHWFRNTLFKERQ [D19N], for which the abundance fitness was 0.07 ± 0.15.

As to RPRTRITDDQLKILRAYFPINNSPSEEQIQEMAEKSGLSQKVIKHWFRNTLFKERQ [D19P], the abundance fitness is -0.149 ± 0.11. Consider RPRTRITDDQLKILRAYFSINNSPSEEQIQEMAEKSGLSQKVIKHWFRNTLFKERQ [D19S], for which the abundance fitness is 0.142 ± 0.085. For RPRTRITDDQLKILRAYFRINNSPSEEQIQEMAEKSGLSQKVIKHWFRNTLFKERQ [D19R], the abundance fitness was -0.009 ± 0.068. RPRTRITDDQLKILRAYFIINNSPSEEQIQEMAEKSGLSQKVIKHWFRNTLFKERQ [D19I]: the abundance fitness was -0.061 ± 0.16. In the case of RPRTRITDDQLKILRAYFLINNSPSEEQIQEMAEKSGLSQKVIKHWFRNTLFKERQ [D19L], the abundance fitness was 0.086 ± 0.079. As to RPRTRITDDQLKILRAYFVINNSPSEEQIQEMAEKSGLSQKVIKHWFRNTLFKERQ [D19V], the abundance fitness is -0.071 ± 0.077.

As to RPRTRITDDQLKILRAYFHINNSPSEEQIQEMAEKSGLSQKVIKHWFRNTLFKERQ [D19H], the abundance fitness was -0.333 ± 0.12. Regarding RPRTRITDDQLKILRAYFGINNSPSEEQIQEMAEKSGLSQKVIKHWFRNTLFKERQ [D19G], the abundance fitness was -0.089 ± 0.067. RPRTRITDDQLKILRAYFMINNSPSEEQIQEMAEKSGLSQKVIKHWFRNTLFKERQ [D19M]: the abundance fitness was -0.033 ± 0.095.

On to RPRTRITDDQLKILRAYFAINNSPSEEQIQEMAEKSGLSQKVIKHWFRNTLFKERQ [D19A], for which the abundance fitness stood at 0.011 ± 0.082. With RPRTRITDDQLKILRAYFEINNSPSEEQIQEMAEKSGLSQKVIKHWFRNTLFKERQ [D19E], the abundance fitness was 0.054 ± 0.092. RPRTRITDDQLKILRAYFYINNSPSEEQIQEMAEKSGLSQKVIKHWFRNTLFKERQ [D19Y]: the abundance fitness is -0.001 ± 0.15. As to RPRTRITDDQLKILRAYFCINNSPSEEQIQEMAEKSGLSQKVIKHWFRNTLFKERQ [D19C], the abundance fitness was -0.072 ± 0.11.

Take RPRTRITDDQLKILRAYSDINNSPSEEQIQEMAEKSGLSQKVIKHWFRNTLFKERQ [F18S]: the abundance fitness was -0.142 ± 0.078. For the variant RPRTRITDDQLKILRAYIDINNSPSEEQIQEMAEKSGLSQKVIKHWFRNTLFKERQ [F18I], the abundance fitness is -0.313 ± 0.1. The result for RPRTRITDDQLKILRAYRDINNSPSEEQIQEMAEKSGLSQKVIKHWFRNTLFKERQ [F18R] reads -0.018 ± 0.067; that for RPRTRITDDQLKILRAYGDINNSPSEEQIQEMAEKSGLSQKVIKHWFRNTLFKERQ [F18G], -0.184 ± 0.065; that for RPRTRITDDQLKILRAYTDINNSPSEEQIQEMAEKSGLSQKVIKHWFRNTLFKERQ [F18T], 0.014 ± 0.1.

Take RPRTRITDDQLKILRAYYDINNSPSEEQIQEMAEKSGLSQKVIKHWFRNTLFKERQ [F18Y]: the abundance fitness is 0.033 ± 0.11. Next, RPRTRITDDQLKILRAYWDINNSPSEEQIQEMAEKSGLSQKVIKHWFRNTLFKERQ [F18W]: -0.142 ± 0.086; RPRTRITDDQLKILRAYCDINNSPSEEQIQEMAEKSGLSQKVIKHWFRNTLFKERQ [F18C]: -0.179 ± 0.091; RPRTRITDDQLKILRAYDDINNSPSEEQIQEMAEKSGLSQKVIKHWFRNTLFKERQ [F18D]: -0.227 ± 0.098. For the variant RPRTRITDDQLKILRAYQDINNSPSEEQIQEMAEKSGLSQKVIKHWFRNTLFKERQ [F18Q], the abundance fitness is 0.011 ± 0.11.

In the case of RPRTRITDDQLKILRAYPDINNSPSEEQIQEMAEKSGLSQKVIKHWFRNTLFKERQ [F18P], the abundance fitness is -0.224 ± 0.098. With RPRTRITDDQLKILRAYNDINNSPSEEQIQEMAEKSGLSQKVIKHWFRNTLFKERQ [F18N], the abundance fitness was -0.268 ± 0.1.

The record behind these values is the Human Domainome abundance scans (Beltran et al. 2025).
